Numbering of substitutions follows the chain as printed.
T1: Cynomolgus MARCO, full length, on cells (cynomolgus, UniProt A0A2K5X0Z2 1-519)
T1 construct: whole, on cells; also called cyno MARCO; CyMARCO
T1 sequence: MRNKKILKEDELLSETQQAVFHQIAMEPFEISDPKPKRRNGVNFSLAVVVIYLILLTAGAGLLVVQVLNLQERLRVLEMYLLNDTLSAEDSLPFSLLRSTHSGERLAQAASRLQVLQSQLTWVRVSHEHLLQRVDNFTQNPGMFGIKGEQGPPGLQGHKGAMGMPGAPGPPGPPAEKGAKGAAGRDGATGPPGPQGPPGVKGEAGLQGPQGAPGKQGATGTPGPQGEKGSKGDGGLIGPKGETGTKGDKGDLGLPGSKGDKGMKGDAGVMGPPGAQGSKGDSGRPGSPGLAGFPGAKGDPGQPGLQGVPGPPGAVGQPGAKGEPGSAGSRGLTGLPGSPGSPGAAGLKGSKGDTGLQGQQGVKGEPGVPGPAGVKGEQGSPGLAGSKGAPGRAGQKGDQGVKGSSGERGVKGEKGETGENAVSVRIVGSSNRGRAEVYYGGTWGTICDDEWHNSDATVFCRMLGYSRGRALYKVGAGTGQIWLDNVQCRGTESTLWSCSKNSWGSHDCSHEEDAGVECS

T2: N-terminally polyhistidine tagged human MARCO ECD (147-520), recombinant (human, UniProt Q9UEW3 147-520)
T2 construct: also called PI-RG-3000; recombinant human MARCO; not shown: N-terminal polyhistidine tag
T2 sequence: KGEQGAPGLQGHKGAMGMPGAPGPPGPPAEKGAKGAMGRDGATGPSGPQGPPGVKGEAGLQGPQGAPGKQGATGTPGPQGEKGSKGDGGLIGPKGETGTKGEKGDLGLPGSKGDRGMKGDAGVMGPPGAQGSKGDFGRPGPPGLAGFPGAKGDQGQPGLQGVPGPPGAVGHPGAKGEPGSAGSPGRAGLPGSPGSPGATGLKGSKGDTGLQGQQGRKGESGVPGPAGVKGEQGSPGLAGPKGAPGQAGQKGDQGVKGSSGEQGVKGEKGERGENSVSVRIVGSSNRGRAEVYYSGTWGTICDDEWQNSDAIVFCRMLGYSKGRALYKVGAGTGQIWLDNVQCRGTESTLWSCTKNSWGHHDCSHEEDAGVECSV

T3: Human Macrophage Receptor with Collagenous Structure (MARCO), full length, on cells (human, UniProt Q9UEW3 1-520)
T3 construct: the cell type is named under assay; also called huMARCO; HuMARCO
T3 sequence: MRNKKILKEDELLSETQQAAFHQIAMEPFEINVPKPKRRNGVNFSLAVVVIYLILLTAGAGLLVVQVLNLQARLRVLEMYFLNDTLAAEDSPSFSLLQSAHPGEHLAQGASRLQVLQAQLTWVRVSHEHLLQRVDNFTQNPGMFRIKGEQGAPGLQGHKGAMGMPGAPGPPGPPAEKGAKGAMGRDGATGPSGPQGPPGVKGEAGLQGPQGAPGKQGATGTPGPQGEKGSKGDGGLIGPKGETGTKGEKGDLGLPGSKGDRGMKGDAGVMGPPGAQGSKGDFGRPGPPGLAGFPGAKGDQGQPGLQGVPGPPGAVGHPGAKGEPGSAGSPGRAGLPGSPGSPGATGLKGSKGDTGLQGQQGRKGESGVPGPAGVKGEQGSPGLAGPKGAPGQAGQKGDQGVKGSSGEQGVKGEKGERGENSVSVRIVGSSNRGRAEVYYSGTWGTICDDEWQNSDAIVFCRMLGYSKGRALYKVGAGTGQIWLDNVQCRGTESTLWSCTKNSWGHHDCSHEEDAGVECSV

T4: chimera Mouse MARCO CLD-human MARCO SRCR, on cells
T4 chain: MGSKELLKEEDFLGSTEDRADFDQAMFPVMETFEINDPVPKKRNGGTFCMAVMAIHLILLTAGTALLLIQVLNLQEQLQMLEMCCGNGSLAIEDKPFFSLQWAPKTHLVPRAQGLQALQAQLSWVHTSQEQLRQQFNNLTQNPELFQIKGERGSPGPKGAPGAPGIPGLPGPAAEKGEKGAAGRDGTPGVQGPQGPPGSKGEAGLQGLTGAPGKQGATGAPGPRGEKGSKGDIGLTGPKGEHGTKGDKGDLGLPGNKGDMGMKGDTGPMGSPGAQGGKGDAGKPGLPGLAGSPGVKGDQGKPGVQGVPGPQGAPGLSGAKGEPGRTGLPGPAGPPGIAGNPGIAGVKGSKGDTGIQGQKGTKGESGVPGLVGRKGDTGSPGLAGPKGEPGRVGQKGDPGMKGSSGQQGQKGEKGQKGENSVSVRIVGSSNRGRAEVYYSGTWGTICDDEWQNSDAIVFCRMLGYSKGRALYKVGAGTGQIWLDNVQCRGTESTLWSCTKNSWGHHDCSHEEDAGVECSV

B1: PI-HX-3011 (antibody, rat IgG2a)
heavy: QIQLVQSGPELKKPGESVKISCKASGYTFTDYAVNWVKQAPGNGLKWMGWINTQTGKPTYADDFKQRFVFSLETSASTSFLQINNLNIEDTATYFCTRDSYYYSSSLDYWGQGVMVTVSSAETTAPSVYPLAPGTALKSNSMVTLGCLVKGYFPEPVTVTWNSGALSSGVHTFPAVLQSGLYTLTSSVTVPSSTWSSQAVTCNVAHPASSTKVDKKIVPRECNPCGCTGSEVSSVFIFPPKTKDVLTITLTPKVTCVVVDISQNDPEVRFSWFIDDVEVHTAQTHAPEKQSNSTLRSVSELPIVHRDWLNGKTFKCKVNSGAFPAPIEKSISKPEGTPRGPQVYTMAPPKEEMTQSQVSITCMVKGFYPPDIYTEWKMNGQPQENYKNTPPTMDTDGSYFLYSKLNVKKETWQQGNTFTCSVLHEGLHNHHTEKSLSHSP
light: DIQMTQSPASLSASLGETVSIECLASAGISNDLAWYQQKSGKSPQLLIYAASRLQDGVPSRFSGSGSGTRFSLKISDMQPEDEADYFCQQSYKYPWTFGGGTKLELKRADAAPTVSIFPPSTEQLATGGASVVCLMNNFYPRDISVKWKIDGTERRDGVLDSVTDQDSKDSTYSMSSTLSLTKADYESHNLYTCEVVHKTSSSPVVKSFNRNEC
notes: Parental rat hybridoma, rat IgG2a
B2: PI-3030-AB (antibody, human IgG1, kappa)
heavy: not shown
light: DIQMTQSPASLSASLGETVSIECLASAGISNDLAWYQQKSGKSPQLLIYAASRLQDGVPSRFSGSGSGTRFSLKISDMQPEDEADYFCQQSYKYPWTFGGGTKLELKRTVAAPSVFIFPPSDEQLKSGTASVVCLLNNFYPREAKVQWKVDNALQSGNSQESVTEQDSKDSTYSLSSTLTLSKADYEKHKVYACEVTHQGLSSPVTKSFNRGEC
notes: Human IgG1 chimera of PI-HX-3011; also called HX3011-h1 Chimera hIgG1
B3: PI-3031-AB (antibody, human IgG1, kappa)
heavy: not shown
light: B2 light with A25T, A27E, A50D, Q55E, F71Y, D77G, P80T, W96L, G100S, L106I
notes: Human IgG1 chimera of PI-HX-3043; also called HX3043-h1 Chimera hIgG1

Experiments:
[1] = target: T1, Cynomolgus MARCO, full length, on cells; assay: flow cytometry, 293T (CyMARCO)
Description: (§1) Supernatants were removed and cell pellets were resuspended in Ca²⁺+ and Mg²⁺+ Dulbecco's phosphate-buffered saline (D-PBS) at 1×10⁶ cells/ml. 100,000 cells/well were plated onto U-bottom 96-well plates for staining and all centrifugation steps were performed at 1500 rpm at 4° C. for 5 min and samples were kept protected from light throughout the protocol. Cells were pelleted and resuspended in 100 μl of Zombie NIR viability dye (BioLegend) prepared by diluting Zombie NIR dimethyl sulfoxide (DMSO) stock 1000-fold in D-PBS. Cells were stained by incubation for 10 min at room temperature (RT) in the dark, followed by quenching the staining reaction with the addition of 100 μl of Staining Medium (D-PBS containing 2% FBS and 2 mM ethylenediaminetetraacetic acid (EDTA). Cells were pelleted and resuspended in 100 μl of the different antibodies and hybridomas supernatants needed for screening and corresponding isotype controls in freshly prepared staining medium, such as PI-M014 and mIgG2b isotype. All mAbs were tested at the final top concentration of 100 nM (15 μg/ml) followed by an 8-point three-fold serial dilution, including 0 mg/ml control. Staining was carried out for 1 hour (hr) on ice, followed by 2 washes in Staining Medium. Cells were then pelleted and resuspended in 100 μl of allophycocyanin (APC)-conjugated goat anti-mouse IgG (Fc-specific) secondary antibody, prepared by 500-fold dilution of the antibody stocks in Staining Medium, and incubated for 30 min on ice. […] Flow cytometry data were analyzed using FlowJo software (version 10.6.1) and data were processed and further analyzed in Microsoft Excel and GraphPad Prism software (version 8). Half-maximal effective concentrations (EC₅₀) were calculated based on geometric mean fluorescence intensities (gMFI). In case when the plates were not able to be analyzed on the cytometer, cells were pelleted after the washes and fixed in 100 μl of 2% paraformaldehyde (PFA), prepared by diluting the 16% (w/v) stock (Thermo Fisher) in DPBS, for 15 min at RT. […]

[2] = target: T2, N-terminally polyhistidine tagged human …; assay: ELISA on recombinant human MARCO, 10 mM EDTA
Description: (§2) After the plates were incubated at room temperature for 1 hour or 4° C. overnight, the plates were wash 3 times with ELISA wash buffer (PBS/0.05% TWEEN-20), then hybridoma supernatant (1:5 dilution) or purified antibody (1 ug) was diluted in DPBS/Ca2+/2% FBS, DPBS without Ca2+/2 mM EDTA/2% FBS, DPBS without Ca2+/10 mM EDTA/2% FBS, and DPBS without Ca2+/50 mM EDTA/2% FBS. Plates again were incubated at room temperature for 1 hour.

[3] = target: T2, N-terminally polyhistidine tagged human …; assay: ELISA on recombinant human MARCO, 0 mM EDTA
Description: as §2

[4] = target: T3, Human Macrophage Receptor with …; assay: flow cytometry, 293T (HuMARCO)
Description: Supernatants were removed and cell pellets were resuspended in Ca²⁺+ and Mg²⁺+ Dulbecco's phosphate-buffered saline (D-PBS) at 1×10⁶ cells/ml. 100,000 cells/well were plated onto U-bottom 96-well plates for staining and all centrifugation steps were performed at 1500 rpm at 4° C. for 5 min and samples were kept protected from light throughout the protocol. Cells were pelleted and resuspended in 100 μl of Zombie NIR viability dye (BioLegend) prepared by diluting Zombie NIR dimethyl sulfoxide (DMSO) stock 1000-fold in D-PBS. Cells were stained by incubation for 10 min at room temperature (RT) in the dark, followed by quenching the staining reaction with the addition of 100 μl of Staining Medium (D-PBS containing 2% FBS and 2 mM ethylenediaminetetraacetic acid (EDTA). Cells were pelleted and resuspended in 100 μl of the different antibodies and hybridomas supernatants needed for screening and corresponding isotype controls in freshly prepared staining medium, such as PI-M014 and mIgG2b isotype. All mAbs were tested at the final top concentration of 100 nM (15 μg/ml) followed by an 8-point three-fold serial dilution, including 0 mg/ml control. Staining was carried out for 1 hour (hr) on ice, followed by 2 washes in Staining Medium. Cells were then pelleted and resuspended in 100 μl of allophycocyanin (APC)-conjugated goat anti-mouse IgG (Fc-specific) secondary antibody, prepared by 500-fold dilution of the antibody stocks in Staining Medium, and incubated for 30 min on ice. Plates were then washed two times with Staining Medium, followed by resuspension in 150 μl of the same buffer for acquisition on the flow cytometer (Attune NxT, Life Technologies). Flow cytometry data were analyzed using FlowJo software (version 10.6.1) and data were processed and further analyzed in Microsoft Excel and GraphPad Prism software (version 8). Half-maximal effective concentrations (EC₅₀) were calculated based on geometric mean fluorescence intensities (gMFI). In case when the plates were not able to be analyzed on the cytometer, cells were pelleted after the washes and fixed in 100 μl of 2% paraformaldehyde (PFA), prepared by diluting the 16% (w/v) stock (Thermo Fisher) in DPBS, for 15 min at RT. Cells were then pelleted and the fixative was removed, followed by resuspension in 150 μl of Staining Medium and stored at 4° C. until acquisition on the flow cytometer.

[5] = target: T2, N-terminally polyhistidine tagged human …; assay: label-free kinetics (ProbeLife Gator), mAb captured, human MARCO
Description: (§3) The kinetics assay used either anti-mouse Fc or anti-human Fc probes to capture the anti-MARCO antibodies onto the probe, and then a five-step kinetic protocol was used to measure the affinity of the antibodies to the antigen, including the following steps: baseline, loading, baseline, association, and dissociation. The kinetics buffer (K buffer) provided by ProbeLife was used to establish the baseline for 60 seconds, and then the anti-mFc or anti-hFc probes were loaded with 200 nM of the antibodies for 120s until the capture reached saturation, measurement of the baseline in K buffer was performed for another 60s, followed by the association step using 200 nM antigen (human MARCO, mouse MARCO or cyno MARCO), and the dissociation step performed in K buffer for 5-10 minutes. The assay was done at 37° C. to maximize antibody:antigen dissociation.
Kinetics and epitope binning analysis of the newly generated anti-human MARCO antibodies was performed as described in Example 3.

[6] = target: T2, N-terminally polyhistidine tagged human …; assay: ELISA on recombinant human MARCO, 50 mM EDTA
Description: as §2

[7] = target: T2, N-terminally polyhistidine tagged human …; assay: ELISA on recombinant human MARCO, 2 mM EDTA
Description: as §2

[8] = target: T2, N-terminally polyhistidine tagged human …; assay: KD (nM) Human; method not given
hVar3 (RG3036) = target: T5, hVar3 (RG3036) (human, UniProt Q9UEW3 147-520); assay: ELISA on hVar3
T5 construct: Human MARCO His-CLD-SRCR with Q452D, Y472S and K473S (already in the entry); also called recombinant human SRCR MARCO hVar3 protein

[9] = target: T4, chimera Mouse MARCO CLD-human MARCO …; assay: flow cytometry, cells overexpressing HuSRCR-mouse CLD chimera
[10] = target: T1, Cynomolgus MARCO, full length, on cells; assay: flow cytometry, cells overexpressing cyno MARCO
[11] = target: T3, Human Macrophage Receptor with …; assay: flow cytometry, cells overexpressing human MARCO
Description: as §1

[12] = target: T2, N-terminally polyhistidine tagged human …; assay: ProbeLife Gator
Description: as §3

Binder | EC50 [1] | ELISA signal (A450) [2] | ELISA signal (A450) [3] | EC50 [4] | koff [5] | kon [5] | ELISA signal (A450) [6] | ELISA signal (A450) [7] | Kd [8] | binding result (hVar3 (RG3036)) | EC50 [9] | EC50 [10] | EC50 [11] | koff [12]
B1 | 0.094 nM | 0.0811 | 1.17 | 0.096 nM | 0.000914 s⁻¹ | 401000 M⁻¹ s⁻¹ | 0.082 | 0.0636 | – | – | – | – | – | –
B2 | – | – | – | – | – | – | – | – | 0.44 nM | no binding | 0.17 nM | 0.38 nM | 0.55 nM | 0.00351 s⁻¹
B3 | – | – | – | – | – | – | – | – | 0.6 nM | no binding | 1.07 nM | 1.09 nM | 1.6 nM | 0.00281 s⁻¹

Reference: patent US20220153832A1 (PIONYR IMMUNOTHERAPEUTICS, published 2022)
